Assay results as given in patent publication US20140193915, “COMPOSITIONS AND METHODS FOR CUSTOM SITE-SPECIFIC DNA RECOMBINASES” (Monsanto Technology, LLC, published 2014).

Key:
[1] = target: T1, sN-TALER N4.2 (synthetic); test: cell_activity; E. coli
T1 chain: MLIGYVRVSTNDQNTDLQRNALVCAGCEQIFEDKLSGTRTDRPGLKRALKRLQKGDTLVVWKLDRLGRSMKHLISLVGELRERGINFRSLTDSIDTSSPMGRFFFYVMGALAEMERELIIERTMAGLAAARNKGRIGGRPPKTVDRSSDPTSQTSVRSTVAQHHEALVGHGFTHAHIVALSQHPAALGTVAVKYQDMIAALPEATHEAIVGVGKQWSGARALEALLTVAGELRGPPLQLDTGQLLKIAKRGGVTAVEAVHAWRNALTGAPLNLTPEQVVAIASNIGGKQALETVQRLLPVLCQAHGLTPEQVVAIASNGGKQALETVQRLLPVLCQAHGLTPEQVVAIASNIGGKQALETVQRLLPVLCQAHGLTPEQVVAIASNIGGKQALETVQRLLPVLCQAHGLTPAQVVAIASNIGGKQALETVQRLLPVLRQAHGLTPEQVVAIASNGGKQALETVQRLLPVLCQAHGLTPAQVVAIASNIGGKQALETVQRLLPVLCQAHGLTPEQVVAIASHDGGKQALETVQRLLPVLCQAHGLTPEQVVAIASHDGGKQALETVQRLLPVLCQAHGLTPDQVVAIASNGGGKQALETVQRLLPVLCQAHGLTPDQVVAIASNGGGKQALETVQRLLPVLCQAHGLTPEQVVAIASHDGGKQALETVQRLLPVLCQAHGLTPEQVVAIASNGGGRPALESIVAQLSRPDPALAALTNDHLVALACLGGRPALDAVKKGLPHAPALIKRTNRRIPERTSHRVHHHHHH
Description: (§1) The co-transformed bacteria were plated on media with chloramphenicol, kanamycin, and X-gal then incubated at 37° C. for 18 to 36 hours. Control samples consisted of transformations using the reporter construct alone. Control transformants were similarly plated. The bacterial transformation protocol was either heat shock or electroporation per standard molecular biology techniques.
(§2) For each of these N-TALER chimera expression constructs, from one to three independent clones were selected for plasmid purification. These N-TALER chimera expression constructs were co-transformed with five of the N-TALER reporter constructs, as indicated in Table 15. […] In contrast to the result for pN-TALER N4.2.2, the chimera sN-TALER N4.2.2, with the same truncation point but a specific recombinase catalytic domain, reporters with 20, 24, or 40 bp of TALER central sequence length were efficiently recombined (score of 1) while reporters with 30 or 50 bp of TALER central sequence length were not recombined (score of 5). For the chimera sN-TALER N4.2, reporters with 20, 24, or 40 bp of TALER central sequence length were efficiently recombined (score of 1); the reporter with 30 bp of TALER central sequence length was poorly recombined (score of 3); and the reporter with 50 bp of TALER central sequence length was not recombined (score of 5). For the chimera pN-TALER N4.2, the recombination efficiency on the reporters tested varied from intermediate (scores of 3 and 4) to none (score of 5). […] In contrast to the result for sN-TALER N3.2, the chimera pN-TALER N3.2, with the same truncation point but a permissive recombinase catalytic domain, recombination efficiency on the reporters tested varied from efficient (scores of 1.5, 2, and 3) to none (score of 5). For both chimeras sN-TALER V.2 and pN-TALER V.2, there was efficient recombination (scores of 1, 1.5, and 2) of the 5 N-TALER reporter constructs tested.

[2] = target: T2, sN-TALER V.2 (synthetic); test: cell_activity; E. coli
T2 chain: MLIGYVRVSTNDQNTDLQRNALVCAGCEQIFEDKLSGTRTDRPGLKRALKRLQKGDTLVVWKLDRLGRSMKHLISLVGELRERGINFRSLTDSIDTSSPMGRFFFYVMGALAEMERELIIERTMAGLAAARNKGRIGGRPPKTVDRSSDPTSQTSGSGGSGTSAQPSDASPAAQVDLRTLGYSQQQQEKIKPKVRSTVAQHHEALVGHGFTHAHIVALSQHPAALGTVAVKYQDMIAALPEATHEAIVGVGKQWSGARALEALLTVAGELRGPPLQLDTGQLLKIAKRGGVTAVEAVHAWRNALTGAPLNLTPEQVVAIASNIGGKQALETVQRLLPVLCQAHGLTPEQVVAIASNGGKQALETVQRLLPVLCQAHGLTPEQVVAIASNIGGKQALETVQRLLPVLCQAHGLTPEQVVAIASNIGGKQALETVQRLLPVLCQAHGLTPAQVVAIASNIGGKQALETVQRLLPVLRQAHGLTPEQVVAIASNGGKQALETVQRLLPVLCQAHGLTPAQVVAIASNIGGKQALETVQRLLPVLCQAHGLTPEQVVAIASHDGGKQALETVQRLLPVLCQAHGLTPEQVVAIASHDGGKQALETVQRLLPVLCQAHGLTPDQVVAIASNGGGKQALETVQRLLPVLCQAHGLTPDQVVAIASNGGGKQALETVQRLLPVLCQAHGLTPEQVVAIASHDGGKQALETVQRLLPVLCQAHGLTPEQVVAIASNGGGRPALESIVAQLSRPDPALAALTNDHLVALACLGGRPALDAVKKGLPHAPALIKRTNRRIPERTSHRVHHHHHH
Description: as §1, §2

B1: Gin18TALE+1 (dsDNA)
DNA 1: AGAAGGTATTTATATCCAAAACCATGGTTTACAATATAAATACCTTCT
DNA 2: AGAAGGTATTTATATTGTAAACCATGGTTTTGGATATAAATACCTTCT
In the case of B1, the activity [1] is reported as 1 score and the activity [2] is reported as 1 score.
